Reference: publication PMC2734569, “Functional mapping of the fission yeast DNA polymerase δ B-subunit Cdc1 by site-directed and random pentapeptide insertion mutagenesis” (BMC Molecular Biology, 2009)

T1: Cdc1-E1 (Schizosaccharomyces pombe, UniProt P87324 1-462, Ser-GlyValProGlnSer-Asp)
T1 construct: Cdc1, S. pombe, with a pentapeptide inserted after residue 66; source: yeast two-hybrid fusion, in S. cerevisiae CTY10-5d
T1 sequence (looked up): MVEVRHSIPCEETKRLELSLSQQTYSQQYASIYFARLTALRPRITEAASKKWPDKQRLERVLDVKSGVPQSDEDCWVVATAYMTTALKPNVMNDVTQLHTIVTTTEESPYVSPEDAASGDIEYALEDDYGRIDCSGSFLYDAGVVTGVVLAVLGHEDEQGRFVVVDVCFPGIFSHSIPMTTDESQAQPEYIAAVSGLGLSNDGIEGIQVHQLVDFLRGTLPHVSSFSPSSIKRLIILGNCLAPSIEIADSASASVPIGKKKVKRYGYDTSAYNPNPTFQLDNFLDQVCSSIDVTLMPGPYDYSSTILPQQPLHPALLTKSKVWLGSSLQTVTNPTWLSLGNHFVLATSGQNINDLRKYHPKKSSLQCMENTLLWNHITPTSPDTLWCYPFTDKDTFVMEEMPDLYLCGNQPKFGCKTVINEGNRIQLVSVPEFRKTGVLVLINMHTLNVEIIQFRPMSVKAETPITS

T2: Cdc1-A5 (Schizosaccharomyces pombe, UniProt P87324 1-462, Asn328Ala)
T2 construct: Cdc1, S. pombe, point mutant; source: yeast two-hybrid fusion, in S. cerevisiae CTY10-5d
T2 sequence (looked up): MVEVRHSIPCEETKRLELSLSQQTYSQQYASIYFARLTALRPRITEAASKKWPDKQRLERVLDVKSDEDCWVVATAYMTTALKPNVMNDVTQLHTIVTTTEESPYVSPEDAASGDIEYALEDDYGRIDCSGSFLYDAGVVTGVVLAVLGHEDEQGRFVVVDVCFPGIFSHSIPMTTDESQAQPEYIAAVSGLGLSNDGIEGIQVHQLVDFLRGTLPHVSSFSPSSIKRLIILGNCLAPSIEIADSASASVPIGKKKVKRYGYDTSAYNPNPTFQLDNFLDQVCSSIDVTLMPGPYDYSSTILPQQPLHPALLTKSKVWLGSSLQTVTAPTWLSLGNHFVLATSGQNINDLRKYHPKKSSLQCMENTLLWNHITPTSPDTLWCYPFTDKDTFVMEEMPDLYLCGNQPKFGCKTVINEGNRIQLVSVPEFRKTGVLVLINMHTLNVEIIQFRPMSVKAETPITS

T3: Cdc1-J4 (Schizosaccharomyces pombe, UniProt P87324 1-462, Ile-GlyValProArgIle-Asp)
T3 construct: Cdc1, S. pombe, with a pentapeptide inserted after residue 127; also called J5; J13; source: yeast two-hybrid fusion, in S. cerevisiae CTY10-5d
T3 sequence (looked up): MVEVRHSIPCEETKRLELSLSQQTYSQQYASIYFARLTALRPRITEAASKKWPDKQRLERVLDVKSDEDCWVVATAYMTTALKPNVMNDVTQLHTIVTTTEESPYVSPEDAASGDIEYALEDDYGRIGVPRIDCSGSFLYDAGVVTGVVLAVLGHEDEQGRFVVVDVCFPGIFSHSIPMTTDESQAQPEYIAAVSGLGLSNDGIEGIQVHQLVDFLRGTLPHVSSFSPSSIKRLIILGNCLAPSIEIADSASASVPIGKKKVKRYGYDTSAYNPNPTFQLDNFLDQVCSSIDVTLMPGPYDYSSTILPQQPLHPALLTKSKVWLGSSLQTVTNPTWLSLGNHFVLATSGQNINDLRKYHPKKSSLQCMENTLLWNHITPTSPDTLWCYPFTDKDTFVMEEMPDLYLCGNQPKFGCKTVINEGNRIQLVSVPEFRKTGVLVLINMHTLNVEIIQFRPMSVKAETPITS

B1: Cdc27 (fission yeast DNA polymerase delta C-subunit) (natural protein, Schizosaccharomyces pombe, UniProt P30261 1-372, looked up)
chain: MEEWRNFLDIKVINESSLVTVDNLSLQLDISSEKAQEYLNMFYQGNDFLYPIYLIHGQPIDDEINLEIDEESQPISNFPVLQYILCDKSSLQEKQSRLKSGYKTVIFALSSAPLSDFDELLPAVYEIREKDVLYKKEDADKYGFIFNENSVPRVLKKAPSTHSPQLSVPSKTSTIDKTDTRSTEKTKGKDIFSNARNQKGNSSRKNKKAPLENHKEKEPLLPKEEKLSEQAKRERDDLKNIMQLEDESVSTTSVHDSEDDNLDSNNFQLEIGTEAKSAAPDEPQEIIKSVSGGKRRGKRKVKKYATTKDEEGFLVTKEEEVWESFSEDENISTGTSNVVRNKPTTVNIATKKKNTAQSKPQQKSIMSFFGKK
notes: DNA polymerase delta C-subunit Cdc27, S. pombe; prey plasmid pGAD2F-Cdc27; also called pGAD2F-Cdc27; source: yeast two-hybrid fusion, in S. cerevisiae CTY10-5d
B2: Pol3 (fission yeast DNA polymerase delta catalytic subunit) (natural protein, Schizosaccharomyces pombe, UniProt P30316 1-1086, looked up)
chain: MTDRSSNEGVVLNKENYPFPRRNGSIHGEITDVKRRRLSERNGYGDKKGSSSKEKTSSFEDELAEYASQLDQDEIKSSKDQQWQRPALPAINPEKDDIYFQQIDSEEFTEGSVPSIRLFGVTDNGNSILVHVVGFLPYFYVKAPVGFRPEMLERFTQDLDATCNGGVIDHCIIEMKENLYGFQGNEKSPFIKIFTTNPRILSRARNVFERGEFNFEELFPVGVGVTTFESNTQYLLRFMIDCDVVGMNWIHLPASKYQFRYQNRVSNCQIEAWINYKDLISLPAEGQWSKMAPLRIMSFDIECAGRKGVFPDPSIDPVIQIASIVTQYGDSTPFVRNVFCVDTCSQIVGTQVYEFQNQAEMLSSWSKFVRDVDPDVLIGYNICNFDIPYLLDRAKSLRIHNFPLLGRIHNFFSVAKETTFSSKAYGTRESKTTSIPGRLQLDMLQVMQRDFKLRSYSLNAVCSQFLGEQKEDVHYSIITDLQNGTADSRRRLAIYCLKDAYLPQRLMDKLMCFVNYTEMARVTGVPFNFLLARGQQIKVISQLFRKALQHDLVVPNIRVNGTDEQYEGATVIEPIKGYYDTPIATLDFSSLYPSIMQAHNLCYTTLLDSNTAELLKLKQDVDYSVTPNGDYFVKPHVRKGLLPIILADLLNARKKAKADLKKETDPFKKAVLDGRQLALKVSANSVYGFTGATNGRLPCLAISSSVTSYGRQMIEKTKDVVEKRYRIENGYSHDAVVIYGDTDSVMVKFGVKTLPEAMKLGEEAANYVSDQFPNPIKLEFEKVYFPYLLISKKRYAGLFWTRTDTYDKMDSKGIETVRRDNCPLVSYVIDTALRKMLIDQDVEGAQLFTKKVISDLLQNKIDMSQLVITKALSKTDYAAKMAHVELAERMRKRDAGSAPAIGDRVAYVIIKGAQGDQFYMRSEDPIYVLENNIPIDAKYYLENQLSKPLLRIFEPILGEKASSLLHGDHTRTISMAAPSVGGIMKFAVKVETCLGCKAPIKKGKTALCENCLNRSAELYQRQVAQVNDLEVRFARLWTQCQRCQGSMHQDVICTSRDCPIFYMRIAEHKKLQQSVDLLKRFDEMSW
notes: DNA polymerase delta catalytic subunit Pol3, S. pombe; prey plasmid named pACT-Pol3 in the results and pGAD2F-Pol3 in the methods; also called Gal4-Pol3; pACT-Pol3; source: yeast two-hybrid fusion, in S. cerevisiae CTY10-5d

Experiments:
[1] = target: Cdc1-J17 (Schizosaccharomyces pombe) (UniProt P87324); test: two-hybrid; LexA-Cdc1 bait (pBTM116 or pBTM116BN) with Gal4 activation domain-Cdc27 prey (pGAD2F-Cdc27) in S. cerevisiae CTY10-5d; ONPG liquid culture beta-galactosidase assay, mean of triplicates, as percent of wild-type Cdc1
[2] = target: T1, Cdc1-E1; test: two-hybrid; LexA-Cdc1 bait (pBTM116 or pBTM116BN) with Gal4-Pol3 prey and co-expressed c-myc-tagged Cdc27 (pAA-Cdc27) in S. cerevisiae CTY10-5d; ONPG liquid culture beta-galactosidase assay, mean of triplicates, as percent of wild-type Cdc1; conditions: partners not purified
[3] = target: T2, Cdc1-A5; test: as above; conditions: partners not purified
[4] = target: T3, Cdc1-J4; test: as above; conditions: partners not purified

Row | Binder | two-hybrid beta-galactosidase activity, % of wild-type Cdc1 [1] | two-hybrid beta-galactosidase activity, % of wild-type Cdc1 [2] | two-hybrid beta-galactosidase activity, % of wild-type Cdc1 [3] | two-hybrid beta-galactosidase activity, % of wild-type Cdc1 [4]
1 | B1 | < 1% | – | – | –
2 | B2 | – | 65% | 4% | 36%
